Experimental data as given in publication PMC3313673.

Molecular target: extracellular domain of quail MuSK (amino acid residues 1 to 463), His-tagged (quail)
Test: ELISA

B1: biotinylated recombinant biglycan (non-glycanated form) (ligand)
chain: DEEASGADTSGVLDPDSVTPTYSAMCPFGCHCHLRVVQCSDLGLKSVPKEISPDTTLLDLQNNDISELRKDDFKGLQHLYALVLVNNKISKIHEKAFSPLRKLQKLYISKNHLVEIPPNLPSSLVELRIHDNRIRKVPKGVFSGLRNMNCIEMGGNPLENSGFEPGAFDGLKLNYLRISEAKLTGIPKDLPETLNELHLDHNKIQAIELEDLLRYSKLYRLGLGHNQIRMIENGSLSFLPTLRELHLDNNKLARVPSGLPDLKLLQVVYLHSNNITKVGVNDFCPMGFGVKRAYYNGISLFNNPVPYWEVQPATFRCVTDRLAIQFGNYKK
modifications: biotin (site not stated)
  signal of the plate assay (read at 415 nm): 0.45
